From the Human Domainome abundance scans (Beltran et al. 2025)

B1: 1-phosphatidylinositol 4,5-bisphosphate phosphodiesterase gamma-2, residues 772 to 827; numbered along this chain, P16885 (parent)
chain: RTVKALYDYKAKRSDELSFCRGALIHNVSKEPGGWWKGDYGTRIQQYFPSNYVEDI

Variants of: B1
Experiment: abundance fitness (aPCA) (normalised: wild type 0, dead -1); higher = more abundant; growth selection in yeast, the domain comes from the species named
Settings: Homo sapiens

Abundance fitness, by site and new letter:
E31: K -0.135; T 0.141; N -0.169; S 0.002; C -0.069; M -0.009; W 0.036; A -0.1; I -0.174; F 0.016; P -0.291; Y -0.05; H -0.265; G 0.065; Q -0.071; L -0.015; V -0.099; D -0.22
F48: L -0.541; E -1.05; A -1.02; N -0.437; M -0.911
H26: T 0.034; Y -0.121; N -0.198; Q -0.005; P -1.1; W -0.072; V -0.035; M -0.069; S 0.01; L -0.081
K30: F -0.21; I 0.245; E -0.042; V -0.047; W -0.293; Q -0.208; D -0.214; A -0.195; L -0.169; M -0.092; G -0.576; P 0.246; C -0.077; R -0.05; T -0.245; N -0.167; H -0.054; Y 0.039
D39: S -0.825; W -0.82; M -0.924; E -0.798; A -1.01; K -0.74; V -0.882; P -0.851; F -0.486; Q -0.958; T -0.418; R -1.01; Y -0.31; G -0.864
I44: H 0.026; A -0.196; S -0.454; Q -0.246; P -0.845; Y -0.116; C -0.074; F -0.237; E -0.133; N -0.224; M 0.019; V 0.043; T 0.191; K -0.008; W -0.384; G -0.811; L -0.111; D -0.64
T42: L -0.155; N 0.139; I -0.021; M -0.01; W -0.186; P 0.147; V -0.165; F -0.152; C -0.227; Y -0.385; S 0.054; Q -0.262; E 0.168; G 0.078; D 0.076; R 0.03; A -0.065; K -0.243
G41: E -0.117; Y -0.557; C -0.581; D 0.069; T -0.699; K -0.012; A -0.273; M -0.268; F -0.54; S -0.627; H -0.151; P -1.01; R -0.234; V -0.889; I -0.566; Q -0.217
Y40: K 0.189; M -0.336; I 0.107; A -0.3; H 0.031; L 0.041; D -0.711; G -0.864; Q -0.312; T -0.265; N -0.284; S -0.284; E -0.419; W -0.713; C -0.061; R -0.498; V -0.216
V28: M -1.08; Q -0.762; S -0.836; N -0.671; R -0.788; D -0.821; W -0.793; C -0.568; A -0.873; T -0.486; K -0.623
W35: L -0.058; F 0.044; M -0.225; E -0.217; I -0.611; D -0.381; A -0.383; P -0.616; S -0.273; V -0.29; T -0.281; R 0.089; G -0.625; K -0.58
G38: W -0.803; V -0.851; K -1.01; S -1; E -0.595; R -0.959; T -0.821; A -0.83; I -0.765; L -1.11
W36: D -0.576; G -0.58; T -0.89; S 0.22; R -0.724; F -0.308; C -0.108; E -0.809; L -0.095; A -0.214; Q -0.839; Y -0.368; I -0.611; M -0.108; K -0.705
S29: F 0.151
Q45: G -0.278; C -0.33; I -0.658; A -0.335; Y -0.732; H -0.458; S -0.472; V -0.942; P -0.699; L -0.923; W -0.916; E -0.819; T -0.651; D -0.753; K -0.51; R -0.92; N -0.273
G34: C -0.284; E -0.06; M -0.11; V -0.032; R -0.06; L -0.083; I -0.143; K 0.024; N 0.138; Y -0.164; D -0.085; P 0.01; Q -0.094; S -0.129; W -0.445; A -0.074; H -0.101; T 0.014
Y47: S -0.293; I -0.607; C -0.401; E -0.672; H -0.437; F -0.051; N -0.256; V -0.34; L 0.002; G -0.604; D -0.763; M -0.417; R 0.076; Q -0.167
K37: F -0.371; E -0.757; T -0.32; R -0.091; A -0.622; L -0.276; M -0.548; Q -0.407; I -0.301; P -0.617; C -0.318; G -0.887; D -0.486; V -0.213; W -0.908; Y -0.301
G33: Y -0.293; D -0.168; T -0.421; Q -0.556; H -0.277; C -0.108; R -0.434; S -0.114; A -0.547; P -0.699; W -0.258; N -0.102; E -0.274; V -0.82; F -0.203; K -0.781; L -0.408
P32: W -0.406; L -0.014; Q 0.022; F -0.247; A 0.056; S -0.011; R -0.166; N 0.256; G -0.115; D -0.087; Y -0.278; V -0.315; C -0.275; K -0.229; E 0.126; M 0.093
R43: A 0.015; N 0.097; G -0.01; S -0.199; C -0.111; W -0.167; L -0.139; V -0.349; T -0.269; D -0.243; H 0.022; E -0.033; I -0.377; Y -0.228; P -0.909; K -0.018; Q -0.039; M -0.049; F -0.359
Q46: N -0.114; G 0.086; V -0.653; T -0.391; F -0.274; R -0.175; K -0.067; Y -0.223; W -0.367; A 0.053; L -0.041; D -0.673; C -0.193; M 0.006; E -0.684; P -0.866; S 0.054
N27: F -1.05; V -0.958; L -0.974; H -0.486; S -0.473; I -0.748; K -0.625; E -0.164; R -0.549; Q -0.13; G -0.654; C -0.722; W -0.956; A -0.56; M -0.695
